# PMC5143422 (Cell Research, 2016)
# Columns and labels:
# [1] = molecular target: FabZ (β-hydroxyacyl-ACP dehydratase) from Helicobacter pylori (Helicobacter pylori) (UniProt O25928); test: SEC-MALS
# [2] = molecular target: FabZ (β-hydroxyacyl-ACP dehydratase) from Helicobacter pylori (Helicobacter pylori) (UniProt O25928); test: MST
# SEC-MALS = molecular target: the molecule itself; test: SEC-MALS
# Sequence of holo-acyl carrier protein (holo-ACP) from Helicobacter pylori (natural protein) (B2UTR8 whole entry): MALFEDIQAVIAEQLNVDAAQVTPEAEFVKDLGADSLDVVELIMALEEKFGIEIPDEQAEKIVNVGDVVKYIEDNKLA
Molecule,stoichiometry N (holo-ACP per FabZ hexamer) [1],"KD, first phase of the triphasic binding curve [2] [µM]","KD, second phase of the triphasic binding curve [2] [µM]","KD, third phase of the triphasic binding curve [2] [µM]",stoichiometry N (SEC-MALS)
holo-acyl carrier protein (holo-ACP) from Helicobacter pylori (natural protein),3,0.354,16.2,297,–
"FabZ (β-hydroxyacyl-ACP dehydratase) from Helicobacter pylori (enzyme, fluorescence dye NT-647 (amine-reaction) in the MST assay only) MEQSHQNLQSQFFIEHILQILPHRYPMLLVDRIIELQANKKIVAYKNITFNEDVFNGHFPNKPIFPGVLIVEGMAQTGGFLAFTSLWGFDPEIAKTKIVYFMTIDKVKFRIPVTPGDRLEYHLEVLKHKGMIWQVGGTAQVDGKVVAEAELKAMIAER",–,–,–,–,6
